{"source": "patent US10174106B2", "about": "“Anti-neurotensin long fragment antibodies and uses thereof” (INSERM (INSTITUT NATIONAL DE LA SANTÉ ET DE LA RECHERCHE …, priority 2014, dated 2019)", "molecules": {"B1": {"name": "FLp26-8.2: NTS monoclonal antibody directed against NTS long fragment; VH SEQ ID NO:1, VL SEQ ID NO:5 (antibody, V domains shown)", "VH": "QIQLVQSGPELKKPGETVKISCKASGYTFTNYGMNWVKQAPGKGLKWMGWITTNTGEPTYAEEFKGRFAFSLETSASTAYLQINNLKNEDTATYFCARRAFAMDYWGQGTSVTVSS", "VL": "DIVMTQAAPSVPVTPGESVSISCRSSKSLLHSNGNTYLYWFLQRPGQSPQLLIYRMSNLASGVPDRFSGSGSGTAFTLRISRVEAEDVGVYYCMQHLEYPYTFGGGTKLEIK", "modifications": "Synthetic VH Sequence; Synthetic VL sequence"}}, "key": {"LNM-R tumors [1]": {"system": "LNM-R tumors", "test": "Cisplatin test, LNM-R xenograft", "format": "in vivo, NMRI nu/nu mice", "experimental": "(§1) Cisplatin test, 1×10^6 LMN-R cells and 1×10^6 R-SI NTSR1 were subcutaneously inoculated in NMRI nu/nu mice, LMN-R in the left flank and R-SI NTSR1 in the right flank. When tumors generated by LMN-R reached an average volume of 95 mm^3, mice were randomized in 5 groups of 8 to 10 mice. Group 1 was administered with PBS, group 2 with antibody FLp26-8.2 (i.p. every other day, 15 mg/kg) for total of 13 times and group 3 with mouse IgG (i.p. every other day, 15 mg/kg). Group 4 was administered with PBS and cisplatin (1 mg/kg at day 1,3 5 7, 15, 17, and 19) and groups 5 with antibody FLp26-8.2 (i.p. every other day, 15 mg/kg) and cisplatin (1 mg/kg at day 1,3 5 7, 15, 17, and 19). The volume of tumor was measured every other day."}, "R-SI NTSR1 tumors [2]": {"system": "R-SI NTSR1 tumors", "test": "Cisplatin test, R-SI NTSR1 xenograft", "format": "in vivo, NMRI nu/nu mice", "settings": "cisplatin 1 mg/kg day 1,3,5,7,15,17,19", "experimental": "as §1"}, "[3]": {"system": "NTS-h cells (MCF-7 overexpressing NTS)", "test": "Type I collagen invasion assay, MCF-7 cells overexpressing NTS (NTS-h)", "format": "cell-based", "settings": "NTS-overexpressing clone NTS-h; EGF 100 ng/mL; 7 μg antibody; 48 h", "experimental": "The mouse #4 was selected. 5 clones were obtained. Clones 1-6, 7-12, 8-2, 13-1, and 16-12 were tested. […] The experiments were repeated twice.\n(§2) The cell culture insert (8 μm, Beckton Dickinson®) was coated with type I collagen (100 μl/well, 4×10^2 μg/ml, Sigma®) at 37° C. 24 h before the assay. 1 million MCF, NTS-h, Hep 3B, HepR1a, and HepR2b cells were seeded in the insert with 250 μl of serum free medium in presence or absence of 7 μg antibodies FLp26-8.2. Outside the insert, 750 μl medium with 10% FCS was added in the well as chemoattractant. After 48 h of incubation, the non-invading cells and collagen are removed from the upper surface of the membrane by scrubbing with a cotton swab. Invading cells (those adhering to the bottom surface of the membrane) were fixed and stained with the Kwif diff stain kit (Thermo®) and the number of stained cells were counted with an inverted microscope at 200× magnification."}, "MCF-7 cells": {"system": "MCF-7 cells", "test": "Type I collagen invasion assay, MCF-7 cells", "format": "cell-based", "settings": "parental MCF-7; EGF 100 ng/mL; 7 μg antibody; 48 h", "experimental": "as §2"}, "CHO-NTSR1 cells": {"system": "CHO-NTSR1 cells", "test": "Cell proliferation of CHO-NTSR1 cells treated with NTS or LNM-R conditioned media", "format": "cell-based", "settings": "2.8 μg antibody, 60% without antibody", "procedure": "Cell Proliferation 20 000 CHO-NTSR1 cells were seeded in 48 well dishes, in 200 ul media 10% with FCS. […] Cells were treated for 40 h in 200 μl media with 2.5% FCS. Cellular proliferation was evaluated by counting using Beckman Coulter's cell counting."}, "Hep-R1a cells": {"system": "Hep-R1a cells", "test": "Collagen invasion assay, Hep-R1a cells (Hep3B transfected with NTSR1)", "format": "cell-based", "settings": "expressing NTS and NTSR1, exposed to antibody", "experimental": "as §2"}, "Hep-R1b cells": {"system": "Hep-R1b cells", "test": "Collagen invasion assay, Hep-R1b cells (Hep3B transfected with NTSR1)", "format": "cell-based", "settings": "expressing NTS and NTSR1, exposed to antibody"}, "LNM-R tumors [4]": {"system": "LNM-R tumors", "test": "Tumor xenograft, LNM-R lung cancer cells (NTS and NTSR1 expressing), left flank", "format": "in vivo, NMRI nu/nu mice", "settings": "15 mg/kg i.p. every other day", "experimental": "(§3) 1×10^6 LMN-R cells and 1×10^6 R-SI NTSR1 were subcutaneously inoculated in NMRI nu/nu mice, LMN-R in the left flank and R-SI NTSR1 in the right flank. When tumors generated by LMN-R reached an average volume of 40 mm^3, mice were randomized in 2 groups, then administered antibody FLp26-8.2 (i.p. every other day, 15 mg/kg) for total 8 times. PBS was used as the vehicle control. The volume of tumor was measured daily."}, "R-SI NTSR1 tumors [5]": {"system": "R-SI NTSR1 tumors", "test": "Tumor xenograft, R-SI NTSR1 cells (LNM-R with NTSR1 sh-RNA), right flank", "format": "in vivo, NMRI nu/nu mice", "settings": "15 mg/kg i.p. every other day; vs PBS; same mice", "experimental": "as §3"}, "MDA-MB231 tumors": {"system": "MDA-MB231 tumors", "test": "Tumor xenograft, MDA-MB 231 breast cancer cells, left flank", "format": "in vivo, NMRI nu/nu mice", "settings": "15 mg/kg i.p. every other day", "experimental": "(§4) 3×10^6 MDA-MB 231 cells and 3×10^6 MDA si2 were subcutaneously inoculated in 100 μl of matrigel the left flank and the right flank of the NMRI nu/nu mice, respectively. When tumors generated by MDA reached an average volume of 50 mm^3, mice were randomized in 2 groups, then administered antibody FLp26-8.2 (i.p. every other day, 15 mg/kg) for total 12 times. PBS was used as the vehicle control."}, "MDA Si2 tumors": {"system": "MDA Si2 tumors", "test": "Tumor xenograft, MDA Si2 cells (sh NTSR1), right flank", "format": "in vivo, NMRI nu/nu mice", "settings": "15 mg/kg i.p. every other day, vs PBS", "experimental": "as §4"}}, "data": [{"molecule": "N.N.[Cl][Pt][Cl]", "note": "[cisplatin, reference compound]", "values": [{"measurement": "tumor growth rates", "setting": "LNM-R tumors [1]; cisplatin 1 mg/kg day 1,3,5,7,15,17,19, IgG 15 mg/kg i.p. every other day, compared to PBS", "result": "not altered"}, {"measurement": "tumor size", "setting": "R-SI NTSR1 tumors [2]", "result": "decreased"}]}, {"molecule": "B1", "values": [{"measurement": "induction of invasiveness induced or not by EGF", "setting": "[3]", "result": "inhibited"}, {"measurement": "induction of invasiveness induced or not by EGF", "setting": "MCF-7 cells", "result": "only in the NTS-overexpressing clones"}, {"measurement": "cellular growth inhibition with antibody added", "setting": "CHO-NTSR1 cells; CM (LNM-R conditioned media) treated cells", "result": 15, "unit": "%"}, {"measurement": "cellular growth inhibition with antibody added", "setting": "CHO-NTSR1 cells; NTS treated cells (10^-7 M)", "result": 48, "unit": "%"}, {"measurement": "invasive rate of the cells", "setting": "Hep-R1a cells", "result": "more drastic"}, {"measurement": "invasive rate of the cells", "setting": "Hep-R1b cells", "result": "reduced"}, {"measurement": "tumor size as compared to controls", "setting": "LNM-R tumors [4]; 8 times, vs PBS", "result": 2.6, "unit": "times smaller"}, {"measurement": "growth from D1", "setting": "LNM-R tumors [4]; PBS 24.68±4.05", "result": "5.92±0.99", "unit": "fold"}, {"measurement": "doubling time after 16 days of treatment", "setting": "LNM-R tumors [4]; PBS control 3.43±0.34", "result": "5.96 ± 0.55", "unit": "days"}, {"measurement": "growth rate", "setting": "R-SI NTSR1 tumors [5]", "result": "not different"}, {"measurement": "size of the tumor", "setting": "R-SI NTSR1 tumors [5]", "result": "not different"}, {"measurement": "tumor growth", "setting": "MDA-MB231 tumors; 24 days, compared to PBS", "result": "strong reduction"}, {"measurement": "growth rate from D1", "setting": "MDA-MB231 tumors; PBS 4.4±0.33", "result": "2.1±0.18", "unit": "fold"}, {"measurement": "doubling time after 24 days of treatment", "setting": "MDA-MB231 tumors; control 11.63±1", "result": "55.5 ± 32", "unit": "days"}, {"measurement": "doubling time", "setting": "MDA Si2 tumors", "result": "no difference"}, {"measurement": "growth rate", "setting": "MDA Si2 tumors", "result": "no difference"}, {"measurement": "tumor size", "setting": "MDA Si2 tumors", "result": "no difference"}, {"measurement": "tumor size", "setting": "LNM-R tumors [1]; FLp26-8.2 15 mg/kg i.p. every other day, with or without cisplatin 1 mg/kg", "result": "smaller"}]}]}
